Laboratory results taken from article PMC7515738, “Identification and characterization of hippuristanol-resistant mutants reveals eIF4A1 dependencies within mRNA 5′ leader regions”.

What was measured:
Conditions in all cases: tags: His6, single strand
eIF4A1 G370S = eIF4A1 G370S (UniProt P60842 1-406, G370S); experiment: fluorescence polarization; no Hipp; similar to wt; FP: 1 uM recombinant protein, FAM-poly r(AG)8, vehicle (0.1% DMSO) or Hipp, 30 min; buffer, salt, pH and temperature not given in the material
eIF4A1 G361C = eIF4A1 G361C (UniProt P60842 1-406, G361C); experiment: as above
eIF4A1 wt = eIF4A1 wt (UniProt P60842 1-406); experiment: fluorescence polarization; no Hipp; FP: 1 uM recombinant protein, FAM-poly r(AG)8, vehicle (0.1% DMSO) or Hipp, 30 min; buffer, salt, pH and temperature not given in the material

Measured: binding result

Chain of eIF4A1 wt (P60842 whole entry): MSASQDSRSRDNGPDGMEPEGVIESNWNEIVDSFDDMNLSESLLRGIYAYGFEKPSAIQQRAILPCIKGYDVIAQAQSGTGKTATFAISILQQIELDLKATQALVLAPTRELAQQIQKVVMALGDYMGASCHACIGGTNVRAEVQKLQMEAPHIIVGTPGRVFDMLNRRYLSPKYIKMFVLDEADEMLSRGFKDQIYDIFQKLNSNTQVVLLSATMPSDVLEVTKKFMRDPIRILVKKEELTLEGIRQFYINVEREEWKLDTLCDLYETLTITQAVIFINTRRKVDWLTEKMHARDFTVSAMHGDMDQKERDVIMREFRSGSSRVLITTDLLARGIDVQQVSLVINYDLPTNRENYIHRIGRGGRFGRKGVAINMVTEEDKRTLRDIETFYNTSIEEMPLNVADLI
Chain of eIF4A1 G361C (P60842 whole entry G361C): as the sequence (P60842 whole entry) above, with G361C counted along it
Chain of eIF4A1 G370S (P60842 whole entry G370S): as the sequence (P60842 whole entry) above, with G370S counted along it

AGAGAGAGAGAGAGAG (ssRNA) [poly r(AG)8]
binds: all assays above
